The target of assay [1] is regulatory domain of human tryptophan hydroxylase 1, C64S (RDTPH1 C64S) (human) (UniProt P17752). The assay is described as follows: SEC. (In general: Size exclusion chromatography separates by hydrodynamic size, large species first.)
Assay [2] has the same target. The assay is described as follows: AUC.
For assay [3] the target is unchanged. The assay is described as follows: SEC. This is another data set of the same source.

Where “and” joins values, the source holds several entries; their conditions need not be identical. Equal values may be shown once.

With “regulatory domain of human tryptophan hydroxylase 1, C64S (RDTPH1 C64S) (from UniProt P17752 1-101) (domain or fragment)”, the stoichiometry N was 2 in assay [1]; 2 in assay [2]; 2 and 4 in assay [3].

Broadly, the stoichiometry N is the number of molecules, sites or subunits per partner or assembly.

The record behind these values is PMC4935573.
